Source: patent US8241627B2, “Modified polypeptides stabilized in a desired conformation and methods for producing same” (The Center for Blood Research, Inc., priority 2000, dated 2012)
Each block holds one molecule with its values, some of them ahead of it.

Legend:
Format in all cases: cell-based
wild-type LFA-1 = molecular target: T1, wild-type LFA-1 (Homo sapiens, UniProt P20701); assay: Inhibition of binding of wild-type LFA-1 transfectants to immobilized ICAM-1; conditions: lovastatin 0-50 μM; cells stimulated with Mn2+ or antibody CBRLFA1/2
T1 construct: expressed in transfected cells
Protocol: (§1) Briefly, ICAM-1 was purified from human tonsil, and coated to 96-well plates as described previously (Lu, C and Springer T A, (1997) J Immunol 159:268-278). Cells were labeled with a florescence dye 2′,7′-bis-(carboxyethyl)-5(and-6)-carboxyfluorescein, acetoxymethyl ester (BCECF-AM), and resuspended to 1×10^6/ml in L15/FBS. 50 μl cell suspension was mixed in ICAM-1 coated wells with an equal volume of L15/FBS in the absence or presence of monoclonal antibody (CBRLFA-1/2, 10 μg/ml). Monoclonal antibodies were used at final concentration of 1:20 hybridoma supernatant, 1:200 ascites, or μg/ml purified IgG. For testing the effect of divalent cations, BCECF-AM-labeled cells were washed 2× with TS buffer, pH7.5 (20 mM Tris, pH 7.5, 150 mMNaCl) containing 5 mM EDTA, followed by 2 washes with TS buffer, pH7.5. […] The fluorescence content of total input cells and the bound cells in each well was quantitated on a Fluorescent Concentration Analyzer (IDEXX, Westbrook, Me.). The bound cells were expressed as a percentage of total input cells per sample well. […]
(§2) The high affinity open I-domains of the invention can be used to discriminate between direct/competitive and indirect/non-competitive modes of inhibition of LFA-1. […] Accordingly, the ability of lovastatin to inhibit ligand binding of the high-affinity I-domain (K287C/K294C) was assessed. […]

LFA-1 mutant K287C/K294C = molecular target: T2, LFA-1 mutant K287C/K294C (Homo sapiens, UniProt P20701, K312C/K319C); assay: Inhibition of binding of mutant K287C/K294C LFA-1 transfectants to immobilized ICAM-1; conditions: lovastatin 0-50 μM
T2 construct: expressed in transfected cells
Protocol: as §1, §2

ICAM-1 = molecular target: T3, ICAM-1 (Homo sapiens, UniProt P05362); assay: Binding of LFA-1 or isolated I-domain transfectants to immobilized ICAM-1; conditions: for binding of 293T transient transfectants to immobilized ICAM-1: no activating antibody
T3 construct: ICAM-1 was purified from human tonsil; from tissue; host or cells: human tonsil
Protocol: Clones of the transfectants that expressed similar levels of cell surface LFA-1, as determined by flow cytometry using monoclonal antibody TS2/4 (FIG. 3B), were tested for their ability to bind to immobilized ICAM-1, as previously described (Lu, C and Springer, T A (1997) J Immunol 159:268-278).
Briefly, ICAM-1 was purified from human tonsil, and coated to 96-well plates as described previously (Lu, C and Springer T A, (1997) J Immunol 159:268-278). Cells were labeled with a florescence dye 2′,7′-bis-(carboxyethyl)-5(and-6)-carboxyfluorescein, acetoxymethyl ester (BCECF-AM), and resuspended to 1×10^6/ml in L15/FBS. 50 μl cell suspension was mixed in ICAM-1 coated wells with an equal volume of L15/FBS in the absence or presence of monoclonal antibody (CBRLFA-1/2, 10 μg/ml). Monoclonal antibodies were used at final concentration of 1:20 hybridoma supernatant, 1:200 ascites, or μg/ml purified IgG. For testing the effect of divalent cations, BCECF-AM-labeled cells were washed 2× with TS buffer, pH7.5 (20 mM Tris, pH 7.5, 150 mMNaCl) containing 5 mM EDTA, followed by 2 washes with TS buffer, pH7.5. Cells were then resuspended to 5×10^5/ml in the TS buffer, pH7.5 supplemented with 1 mM MgCl2/CaCl2, MgCl2, MnCl2 mM EDTA, and 100 μl cell suspension was added to ICAM-1 coated wells. After incubation at 37° C. for 30 minutes, unbound cells were washed off on a Microplate Autowasher (Bio-Tek Instruments, Winooski, Vt.). The fluorescence content of total input cells and the bound cells in each well was quantitated on a Fluorescent Concentration Analyzer (IDEXX, Westbrook, Me.). The bound cells were expressed as a percentage of total input cells per sample well.
For generating stable K562 transfectants that express the I-domain on the surface, 20 μg of SspI-linearized pcDNA3.1/Hygro(+) containing the sequences encoding the I domain and the PDGFR transmembrane domain was used to transfect K562 cells by electroporation as described above. Transfectants were selected for resistance to 100 μg/ml hygromycin B, and were further subcloned by cell sorting and limiting dilution; clones that expressed similar levels of surface wild-type and mutant I domain-PDGFR were selected for functional studies. Stable cell lines were maintained in RPMI medium 1640 supplemented with 10% FBS and 100 μg/ml hygromycin B. Cell surface expression of the isolated I-domains was determined by flow cytometry using antibody TS1/22 to the I-domain (FIG. 7). Two clones from each transfectant were selected and tested for binding to immobilized ICAM-1, and similar results were obtained with each of the two clones (FIG. 8A).
If the constitutive ligand binding activity of mutant K287C/K294C is due to the formation of a disulfide bond between the introduced C287 and C294, disruption of the disulfide bond with a reducing agent would abolish ligand binding ability of the mutant. Accordingly, the transfectants were treated with the reducing agent DTT (10 mM) in L15/FBS containing Mg^2+ and Ca^2+, and the ability of transfectants to bind to ICAM-1 was assessed.
Furthermore, the effect of divalent cations on ligand binding of the isolated I-domains expressed on the surface of K562 transfectants was tested. The binding reactions were performed in HEPES/NaCl/glucose (20 mM HEPES, pH 7.5, 140 mM NaCl, 2 mg/ml glucose) supplemented with 1 mM […], 1 mM Mg^2+, or 1 mM EDTA.

iC3b = molecular target: T4, iC3b (Homo sapiens, UniProt P01024); assay: Adhesion of αMβ2 (Mac-1) or αM I-domain transfectants to immobilized iC3b
T4 construct: mutant to iC3b coated on plastic
Text: In order to assess the effect of the introduction of pairs of potentially disulfide bond-forming cysteines into the I-domain of αMβ2 on CBRM 1/5 activation-dependent epitope expression and ligand binding, plasmids encoding the wild-type or mutant αM subunits and the β2 subunit were co-transfected into 293T and K562 cells. α.β heterodimer formation was confirmed using monoclonal antibody CBRM1/32 which recognizes an epitope in the putative β-propeller domain of the αM subunit only after association with the β2 subunit, and antibody CBRM1/5 was used to detect integrin activation.
Alternatively, isolated Mac-1 mutant I-domains were expressed on the cell surface in conjunction with an artificial signal sequence and transmembrane domain of the PDGF receptor. Adhesion was assayed in L15/FBS/MnCl2 at 37° C.
In a further study, the open I-domain mutants Q 163C/Q309C and D294C/Q311C were stably expressed in K562 cells, and clones expressing the same levels of receptors were selected. Adhesion assays to immobilized iC3b were performed with L15/FBS at 37° C.
Binding of αMβ2 transfectants containing mutant I-domains to immobilized iC3b on plastic was tested in the presence and absence of DTT.

T3 sequence (P05362 28-532): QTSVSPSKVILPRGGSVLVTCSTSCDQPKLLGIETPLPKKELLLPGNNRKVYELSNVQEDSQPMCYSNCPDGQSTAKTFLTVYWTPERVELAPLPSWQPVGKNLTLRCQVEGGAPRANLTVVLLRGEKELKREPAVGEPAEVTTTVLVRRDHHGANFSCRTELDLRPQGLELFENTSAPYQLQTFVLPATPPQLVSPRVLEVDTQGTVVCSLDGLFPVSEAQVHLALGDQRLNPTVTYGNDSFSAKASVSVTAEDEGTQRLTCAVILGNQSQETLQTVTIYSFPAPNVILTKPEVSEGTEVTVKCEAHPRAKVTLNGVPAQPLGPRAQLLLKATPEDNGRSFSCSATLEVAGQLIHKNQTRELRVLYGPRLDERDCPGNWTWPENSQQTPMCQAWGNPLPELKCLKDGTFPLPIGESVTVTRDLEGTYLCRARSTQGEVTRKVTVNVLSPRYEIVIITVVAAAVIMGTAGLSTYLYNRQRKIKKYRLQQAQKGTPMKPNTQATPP
T4 sequence (P01024 23-667 limits assumed): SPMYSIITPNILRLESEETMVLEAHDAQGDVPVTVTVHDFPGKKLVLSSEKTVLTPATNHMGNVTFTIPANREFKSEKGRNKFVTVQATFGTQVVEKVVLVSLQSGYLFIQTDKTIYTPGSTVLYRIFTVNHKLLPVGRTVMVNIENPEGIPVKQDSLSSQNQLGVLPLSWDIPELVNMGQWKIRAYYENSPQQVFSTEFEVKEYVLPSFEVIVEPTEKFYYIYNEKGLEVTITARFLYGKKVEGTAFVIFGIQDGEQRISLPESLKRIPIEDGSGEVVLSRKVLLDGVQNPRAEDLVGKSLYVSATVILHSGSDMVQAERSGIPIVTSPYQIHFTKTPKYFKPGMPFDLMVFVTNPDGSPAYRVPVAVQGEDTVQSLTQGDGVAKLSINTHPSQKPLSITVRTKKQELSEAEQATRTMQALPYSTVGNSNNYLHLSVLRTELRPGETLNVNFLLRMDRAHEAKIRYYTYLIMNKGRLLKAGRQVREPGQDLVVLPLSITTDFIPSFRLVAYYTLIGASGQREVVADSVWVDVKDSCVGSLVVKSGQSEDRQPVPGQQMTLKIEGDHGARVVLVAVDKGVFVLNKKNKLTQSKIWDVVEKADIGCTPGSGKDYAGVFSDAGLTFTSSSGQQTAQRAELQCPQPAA
T4 sequence (P01024 749-1303 limits assumed): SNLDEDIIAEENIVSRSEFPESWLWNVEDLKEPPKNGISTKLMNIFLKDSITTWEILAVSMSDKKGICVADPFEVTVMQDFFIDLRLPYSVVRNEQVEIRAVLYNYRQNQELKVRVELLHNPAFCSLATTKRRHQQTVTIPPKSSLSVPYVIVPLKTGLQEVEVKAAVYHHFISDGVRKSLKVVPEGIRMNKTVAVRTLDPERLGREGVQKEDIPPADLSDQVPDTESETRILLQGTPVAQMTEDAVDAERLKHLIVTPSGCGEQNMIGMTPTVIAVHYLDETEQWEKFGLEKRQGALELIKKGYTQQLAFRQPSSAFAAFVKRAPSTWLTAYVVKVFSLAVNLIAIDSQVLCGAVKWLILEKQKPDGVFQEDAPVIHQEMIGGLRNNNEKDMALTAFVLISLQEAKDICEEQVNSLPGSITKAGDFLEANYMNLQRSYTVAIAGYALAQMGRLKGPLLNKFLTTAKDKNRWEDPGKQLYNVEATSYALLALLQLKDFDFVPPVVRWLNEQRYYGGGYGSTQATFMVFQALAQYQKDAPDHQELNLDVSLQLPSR
T4 sequence (P01024 1321-1663 limits assumed): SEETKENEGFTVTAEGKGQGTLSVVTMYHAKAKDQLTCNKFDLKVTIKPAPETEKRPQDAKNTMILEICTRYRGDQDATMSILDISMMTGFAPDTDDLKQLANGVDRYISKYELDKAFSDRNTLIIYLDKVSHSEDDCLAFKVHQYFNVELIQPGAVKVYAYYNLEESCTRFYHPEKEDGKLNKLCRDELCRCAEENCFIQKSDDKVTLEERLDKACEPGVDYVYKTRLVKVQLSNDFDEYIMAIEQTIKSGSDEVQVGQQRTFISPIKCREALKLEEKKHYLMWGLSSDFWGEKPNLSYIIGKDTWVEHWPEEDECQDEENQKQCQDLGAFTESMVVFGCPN
T1 sequence (P20701 26-1170): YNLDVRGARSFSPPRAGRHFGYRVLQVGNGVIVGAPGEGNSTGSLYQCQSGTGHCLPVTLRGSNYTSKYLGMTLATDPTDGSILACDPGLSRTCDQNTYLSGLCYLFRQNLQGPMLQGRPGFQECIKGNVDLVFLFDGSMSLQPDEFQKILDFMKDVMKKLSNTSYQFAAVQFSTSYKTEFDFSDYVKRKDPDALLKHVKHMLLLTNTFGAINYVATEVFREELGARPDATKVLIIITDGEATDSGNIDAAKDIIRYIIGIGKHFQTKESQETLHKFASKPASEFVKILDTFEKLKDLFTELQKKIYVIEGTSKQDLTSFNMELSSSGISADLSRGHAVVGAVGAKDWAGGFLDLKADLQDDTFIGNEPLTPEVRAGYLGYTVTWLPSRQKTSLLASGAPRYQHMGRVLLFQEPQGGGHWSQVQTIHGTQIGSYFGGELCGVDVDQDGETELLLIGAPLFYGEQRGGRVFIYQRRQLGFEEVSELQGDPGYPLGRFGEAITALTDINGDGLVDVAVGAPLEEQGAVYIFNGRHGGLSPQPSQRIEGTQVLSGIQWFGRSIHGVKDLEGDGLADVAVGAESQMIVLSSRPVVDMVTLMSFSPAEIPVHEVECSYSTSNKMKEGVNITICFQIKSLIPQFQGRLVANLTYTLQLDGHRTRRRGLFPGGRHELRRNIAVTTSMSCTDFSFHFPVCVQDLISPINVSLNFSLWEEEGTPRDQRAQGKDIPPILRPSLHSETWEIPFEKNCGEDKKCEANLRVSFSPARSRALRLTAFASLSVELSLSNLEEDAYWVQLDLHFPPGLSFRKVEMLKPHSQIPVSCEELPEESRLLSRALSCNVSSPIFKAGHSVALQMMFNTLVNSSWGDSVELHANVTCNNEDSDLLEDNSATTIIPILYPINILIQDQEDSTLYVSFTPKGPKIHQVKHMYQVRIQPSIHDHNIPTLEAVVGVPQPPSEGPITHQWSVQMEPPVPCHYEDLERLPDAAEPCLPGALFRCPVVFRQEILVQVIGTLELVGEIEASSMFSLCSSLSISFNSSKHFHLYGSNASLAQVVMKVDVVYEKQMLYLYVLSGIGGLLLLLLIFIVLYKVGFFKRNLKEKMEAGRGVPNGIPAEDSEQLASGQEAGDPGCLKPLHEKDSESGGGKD
T1 sequence (P05107 23-769 partner): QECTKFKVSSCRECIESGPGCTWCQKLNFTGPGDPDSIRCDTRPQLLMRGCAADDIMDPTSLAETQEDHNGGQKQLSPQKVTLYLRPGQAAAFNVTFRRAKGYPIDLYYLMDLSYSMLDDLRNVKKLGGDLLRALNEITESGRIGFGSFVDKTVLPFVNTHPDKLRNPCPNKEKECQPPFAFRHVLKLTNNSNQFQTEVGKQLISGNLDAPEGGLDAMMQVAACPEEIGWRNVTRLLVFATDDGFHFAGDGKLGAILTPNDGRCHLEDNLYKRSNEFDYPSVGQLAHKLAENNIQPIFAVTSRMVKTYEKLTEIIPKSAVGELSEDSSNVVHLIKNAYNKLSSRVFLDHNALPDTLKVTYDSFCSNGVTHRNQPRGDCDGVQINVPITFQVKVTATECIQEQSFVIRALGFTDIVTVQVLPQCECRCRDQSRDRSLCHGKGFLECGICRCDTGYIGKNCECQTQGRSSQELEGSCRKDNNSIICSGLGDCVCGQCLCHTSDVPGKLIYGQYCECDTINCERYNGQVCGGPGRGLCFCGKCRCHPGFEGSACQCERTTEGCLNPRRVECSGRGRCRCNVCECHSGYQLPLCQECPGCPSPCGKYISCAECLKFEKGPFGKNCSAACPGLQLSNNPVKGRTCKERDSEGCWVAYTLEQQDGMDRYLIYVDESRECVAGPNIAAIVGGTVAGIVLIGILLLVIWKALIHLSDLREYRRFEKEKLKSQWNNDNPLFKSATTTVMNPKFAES
T2 sequence (P20701 26-1170 K312C/K319C): as the sequence (P20701 26-1170) above, with K287C, K294C counted along it
T2 sequence (P05107 23-769 partner): as the sequence (P05107 23-769 partner) above

- binding of 293T transient transfectants to immobilized ICAM-1 (ICAM-1; 293T): comparable to that of the wild-type
Molecule: K294C: single cysteine substitution mutant of LFA-1 αL

- effect of DTT on binding of intact αMβ2 (iC3b; DTT): increased binding
- adhesion of αMβ2 transfectant to iC3b, +DTT −activation (iC3b; DTT treatment, no activating mAb): ++ (++25-50%)
- ligand binding (iC3b) of intact αMβ2 heterodimer in K562 stable transfectants (iC3b; K562, L15/FBS at 37° C.): little basal activity
- adhesion of αMβ2 transfectant to iC3b, −DTT −activation (iC3b; no DTT, no activating mAb): ± (+−.: 0-5%)
Molecule: Wild type: wild-type αMβ2 (Mac-1) transfectant
- adhesion of αMβ2 transfectant to iC3b, +DTT +activation (iC3b; DTT treatment, activated by mAb CBR LFA-1/2): ++++ (++++: 75-100% of binding by activated wild type transfectant)
- adhesion of αMβ2 transfectant to iC3b, −DTT +activation (iC3b; no DTT, activated by mAb CBR LFA-1/2): ++++ (++++: 75-100% of binding by activated wild type transfectant)

The next lines start with the molecule.

Molecule: CC[C@H](C)C(=O)O[C@H]1C[C@@H](C)C=C2C=C[C@H](C)[C@H](CC[C@@H]3C[C@@H](O)CC(=O)O3)[C@H]21 [lovastatin]
- inhibition of ICAM-1 binding by cells expressing wild-type LFA-1 (wild-type LFA-1): inhibits
- interference with ligand binding by the high affinity open K287C/K294C mutant (LFA-1 mutant K287C/K294C): does not interfere

Molecule: L289C: single cysteine substitution mutant of LFA-1 αL
- binding of 293T transient transfectants to immobilized ICAM-1 with activating mAb CBRLFA-1/2 (ICAM-1; 293T, CBRLFA-1/2 10 μg/ml): increased
- binding of 293T transient transfectants to immobilized ICAM-1 (ICAM-1; 293T): reduced binding

Molecule: wild-type LFA-1: wild-type human αL/β2 (LFA-1) expressed on 293T or K562 transfectants [reference compound]
- binding of 293T transient transfectants to immobilized ICAM-1 (ICAM-1; 293T): constitutively strong binding
- binding of K562 stable transfectants to immobilized ICAM-1 with activating mAb CBRLFA-1/2 (ICAM-1; K562, CBRLFA-1/2 10 μg/ml): greatly increased
- effect of Mn2+ and Mg2+ on binding of K562 transfectants to ICAM-1 (ICAM-1; K562, intact LFA-1, Mn2+ / Mg2+): greatly enhanced
- binding of K562 stable transfectants to immobilized ICAM-1 (ICAM-1; K562, no activating antibody): low basal binding
- effect of DTT treatment on binding to ICAM-1 (ICAM-1; K562 transfectants, DTT 10 mM in L15/FBS): increased binding
